Values of other authors in publication PMC6868133 (Scientific Reports, 2019).
Read-outs that look alike come from different tables or passages of the source.

Experiments:
[1] = human, in vivo
[2] = rhesus monkey, in vivo, sc
[3] = test system: fasting plasma glucose levels; conditions: humans
Excerpt: The goal of the current study was to evaluate the pharmacokinetic properties of a single-dose of PT320 in healthy nonhuman primates. […] Systemic Exenatide ...

[4] = Long-Acting (> 24 hr), ref supplement [3-5]

Semaglutide
Half Life (T1/2) [4]: 140 to 170 h

albiglutide
Half Life (T1/2) [4]: 140 to 170 h
T1/2 (long-acting GLP-1R agonists): 140 to 170 h

lixisenatide
Half Life (T1/2) (Short-Acting (< 24 hr), ref supplement [1,2]): 3 h
T1/2 (short-acting GLP-1R agonist, administered once daily): 3 h

Exenatide
patients with higher-titer antibodies (≥625) [1]: 5%
patients with low anti-Exenatide antibody titers (≤125) [1]: 32%
terminal disappearance half-life from plasma [2]: 0.78 to 1.94 h
minimally effective concentration (level required to reduce fasting plasma glucose levels) [3]: approximately 50 pg/ml

dulaglutide
Half Life (T1/2) [4]: 96 h
T1/2 (long-acting GLP-1R agonists): 96 h
